The values below are quoted from earlier work in paper PMC4380812.

In general, Kd refers to the free concentration of one partner at which half of the binding sites on the other are occupied at equilibrium, for simple one-to-one binding.

This series deals with HdeA (Escherichia coli) (UniProt P0AES9).

Chain of HdeA (P0AES9 22-110): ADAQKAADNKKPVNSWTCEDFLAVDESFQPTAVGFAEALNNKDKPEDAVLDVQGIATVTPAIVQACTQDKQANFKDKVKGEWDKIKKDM

As for HdeA (from UniProt P0AES9), the dissociation constant (Kd) is 1 µM.
